In patent US9708382B2, “Peptide library” (Daiichi Sankyo Company, Limited, priority 2011, dated 2017):

Experiments:
[1] = molecular target: T1, Recombinant Mouse EphA2/Fc Chimera (mEphA2/Fc) (Mus musculus, UniProt Q03145); experiment: Phage ELISA on solid-phase immobilized mEphA2/Fc; assay type: binding; settings: phage-displayed peptide, compared with wild-type TACI_d2
T1 construct: purchased R&D systems, Inc
Protocol: (§1) As to 3 clones (α-EphA2 #1 to #3: corresponding to SEQ ID NOs: 3 to 5, respectively, in the Sequence Listing and to Nos. 2 to 4, respectively in FIG. 4) selected from the Escherichia coli colonies after the final round of panning with hEphA2 as a target molecule, an Escherichia coli suspension with OD600 nm=0.3 was prepared using 2×YT/Amp/1% Glu. The Escherichia coli cells of each clone were shake-cultured at 37° C. and allowed to grow until OD600 nm=0.5. A sufficient amount of helper phages M13K07 was added thereto to infect the cells at 37° C. for 30 minutes. After addition of 2×YT/Amp/Kan/0.25 mM IPTG, the helper phage-infected Escherichia coli was shake-cultured overnight at 22° C. 20% PEG/2.5 M NaCl solution was added to the recovered culture supernatant to precipitate phages. The precipitated phages were suspended in PBS. This phage stock solution and a series of two-fold dilutions with PBS were used in phage ELISA. An Escherichia coli TG-1 strain having a pCANTAB 5E vector containing the wild-type TACI_d2 gene was also subjected to the same operation as above to prepare phages.
Each of hEphA2, BSA, Recombinant Human BAFF/BLyS/TNFSF13B (R&D systems, Inc.; a polypeptide consisting of amino acids from Ala at position 134 to Leu at position 285 in human BAFF (UniProtKB/Swiss-Prot Accession # Q9Y275) and containing an N-terminally linked histidine tag, etc.; hereinafter referred to as “hBAFF”), and Recombinant Mouse EphA2/Fc Chimera, CF (R&D systems, Inc.; a polypeptide consisting of amino acids from Ala at position 22 to Ala at position 535 in mouse EphA2 (NCBI Accession No. #AAA82113) and containing a C-terminally linked Fc region (from Pro at position 100 to Lys at position 330) of human immunoglobulin G1 (hereinafter, referred to as “hIgG1”); hereinafter, referred to as “mEphA2/Fc”) was added to a Maxisorp plate and solid-phase immobilized overnight at 4° C. […] After washing of the Maxisorp plate with TBST again, the amount of a phage bound with the protein solid-phase immobilized on the plate was detected as absorbance at a wavelength of 405 nm using ELISA POD.

[2] = molecular target: T2, human EphA2 expressed on cell surface (Homo sapiens, UniProt P29317); experiment: Flow cytometry binding to human EphA2-expressing HEK293T cells; assay type: cell-based; settings: phage-displayed peptide, HEK293T cells transfected with human EphA2, human ErbB2-expressing cells as negative control
T2 construct: expressed in transfected cells; host or cells: HEK293T
T2 sequence (P29317 24-976): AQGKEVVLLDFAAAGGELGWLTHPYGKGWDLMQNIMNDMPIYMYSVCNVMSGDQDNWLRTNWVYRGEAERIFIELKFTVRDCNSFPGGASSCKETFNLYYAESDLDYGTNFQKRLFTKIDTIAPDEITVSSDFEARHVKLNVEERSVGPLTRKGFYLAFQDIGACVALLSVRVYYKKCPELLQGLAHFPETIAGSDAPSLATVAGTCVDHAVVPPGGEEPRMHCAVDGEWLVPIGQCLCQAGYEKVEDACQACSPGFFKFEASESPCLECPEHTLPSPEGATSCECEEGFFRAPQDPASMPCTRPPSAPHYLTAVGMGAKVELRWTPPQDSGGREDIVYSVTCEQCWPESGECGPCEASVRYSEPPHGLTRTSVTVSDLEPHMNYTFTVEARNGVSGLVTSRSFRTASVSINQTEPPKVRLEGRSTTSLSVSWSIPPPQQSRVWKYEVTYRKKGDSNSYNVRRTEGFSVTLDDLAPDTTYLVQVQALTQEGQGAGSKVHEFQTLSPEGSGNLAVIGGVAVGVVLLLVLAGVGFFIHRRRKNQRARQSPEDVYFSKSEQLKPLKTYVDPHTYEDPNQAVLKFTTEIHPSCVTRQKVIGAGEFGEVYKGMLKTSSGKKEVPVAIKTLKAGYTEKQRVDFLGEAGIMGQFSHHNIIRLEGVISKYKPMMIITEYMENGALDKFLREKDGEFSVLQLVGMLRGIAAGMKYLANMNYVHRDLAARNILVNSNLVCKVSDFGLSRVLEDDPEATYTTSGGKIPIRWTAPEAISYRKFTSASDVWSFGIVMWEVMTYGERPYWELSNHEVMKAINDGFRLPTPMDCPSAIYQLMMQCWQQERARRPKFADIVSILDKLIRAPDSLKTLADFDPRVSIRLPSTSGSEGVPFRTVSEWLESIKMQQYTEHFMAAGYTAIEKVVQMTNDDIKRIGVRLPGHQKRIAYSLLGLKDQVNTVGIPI
Protocol: Human embryonic kidney cells (HEK293T cells) were cultured at 37° C. in the presence of 5% CO2 using a Dulbecco's modified eagle's medium (hereinafter, referred to as “DMEM”; manufactured by GIBCO, Life Technologies Corp.) containing 10% fetal bovine serum (FBS) (hereinafter, this medium is referred to as “DMEM-10% FBS”). For use in transfection or flow cytometry, the cells were dissociated from the plate for culture using 0.05% trypsin-EDTA (GIBCO), and the cell suspension was then centrifuged to recover cells, which were then resuspended in DMEM-10% FBS and used.
The HEK293T cells were transfected with a pcDNA-DEST40 Gateway vector (manufactured by Invitrogen Corp.) having an insert of the human EphA2 gene or the human ErbB2 gene as a negative control using Lipofectamine 2000 (manufactured by Invitrogen Corp.) according to the instructions.
The transfected cells were recovered. The recovered cells were suspended in a FACS buffer (PBS containing 5% FBS) and applied to a nylon mesh. The solution was dispensed in an amount of 5×10^5 cells/well to 96 Well Cell Culture Cluster Round Bottom With Lid (manufactured by Costar, Corning Inc.) and centrifuged to remove a supernatant. The phage stock solution prepared in the paragraph 1) of Example 4 was added to the resulting cells at a concentration of 50 μL/well, and the mixture was left standing at 4° C. for 30 minutes. A FACS buffer was added thereto at a concentration of 150 μL/well, and the mixture was centrifuged to remove a supernatant. Again, a FACS buffer was added thereto at a concentration of 200 μL/well, and the mixture was centrifuged to remove a supernatant (hereinafter, cells were washed in the same way as this operation). An Anti-M13 antibody diluted 100-fold was added to the obtained cells at a concentration of 50 μL/well as a primary antibody, and the mixture was left standing at 4° C. for 30 minutes, followed by washing of the cells. Subsequently, FLUORESCEIN-CONJUGATED GOAT IGG FRACTION TO MOUSE IGG (manufactured by Cappel, MP Biomedicals, LLC) diluted 1000-fold was added thereto as a secondary antibody, and the mixture was left standing at 4° C. for 30 minutes, followed by washing of the cells. The obtained cells were suspended in 250 μL of a FACS buffer and subjected to Cytomics FC 500 Flow Cytometry System (manufactured by Beckman Coulter, Inc.). Fluorescently stained cells were detected.

BAFF = BAFF (Homo sapiens, UniProt Q9Y275); settings: compared with whole extracellular region (TACI_d1d2); cited from earlier work
BAFF, sequence (Q9Y275 134-285 limits assumed, species assumed): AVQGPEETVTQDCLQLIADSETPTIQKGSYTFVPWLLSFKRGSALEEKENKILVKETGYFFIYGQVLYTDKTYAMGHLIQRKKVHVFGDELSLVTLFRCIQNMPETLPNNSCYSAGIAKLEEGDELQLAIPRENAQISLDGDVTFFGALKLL

APRIL = molecular target: T3, APRIL (Homo sapiens, UniProt O75888); settings: compared with whole extracellular region (TACI_d1d2); cited from earlier work
T3 sequence (O75888 105-250): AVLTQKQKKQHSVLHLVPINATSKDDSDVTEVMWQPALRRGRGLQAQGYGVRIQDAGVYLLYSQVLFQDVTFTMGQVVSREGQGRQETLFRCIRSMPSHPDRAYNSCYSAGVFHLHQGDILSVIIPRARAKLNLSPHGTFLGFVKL

[3] = molecular target: T4, Recombinant Human BAFF/BLyS/TNFSF13B (hBAFF) (Homo sapiens, UniProt Q9Y275); experiment: Phage ELISA on solid-phase immobilized hBAFF; assay type: binding; settings: phage-displayed peptide, absorbance at 405 nm
T4 construct: amino acids from Ala at position 134 to Leu at position 285 in human BAFF; histidine tag (N); purchased R&D systems, Inc
T4 sequence (Q9Y275 134-285): as the sequence (Q9Y275 134-285 limits assumed, species assumed) above
Protocol: as §1, with “prepare phages. […]” for “prepare phages.”

T1 sequence (Q03145 22-535, change not shown): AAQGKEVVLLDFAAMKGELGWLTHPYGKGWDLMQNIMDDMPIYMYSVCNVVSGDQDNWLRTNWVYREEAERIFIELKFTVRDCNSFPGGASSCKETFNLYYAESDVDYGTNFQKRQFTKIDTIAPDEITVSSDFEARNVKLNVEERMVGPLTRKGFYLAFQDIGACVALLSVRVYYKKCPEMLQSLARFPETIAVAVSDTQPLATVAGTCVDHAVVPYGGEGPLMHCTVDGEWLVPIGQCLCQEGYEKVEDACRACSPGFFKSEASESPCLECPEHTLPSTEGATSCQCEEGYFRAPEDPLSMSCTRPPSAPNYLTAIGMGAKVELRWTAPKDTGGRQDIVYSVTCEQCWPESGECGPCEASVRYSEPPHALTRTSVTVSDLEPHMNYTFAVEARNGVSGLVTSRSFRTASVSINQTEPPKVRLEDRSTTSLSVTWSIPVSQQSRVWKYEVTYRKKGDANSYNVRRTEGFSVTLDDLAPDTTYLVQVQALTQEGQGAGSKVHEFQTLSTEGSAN

Substance	cross reactivity to mEphA2 [1]	binding to human EphA2 expressed on cell surface [2]	binding to human EphA2 expressed on cell surface ([2]; listed as α-EphA2 TACI_d2 #2)	binding to human EphA2 expressed on cell surface ([2]; listed as α-EphA2 TACI_d2 #1)	binding activity against BAFF (BAFF)	binding activity against APRIL (APRIL)	binding to the endogenous ligand hBAFF [3]
SLSCRKEQGKHYLLKEYDCDSCASECGYHPDYCAYFCEN (Amino acid sequence of human EphA2-binding peptide a-EphA2 #3) [α-EphA2 #3]	cross reactivity to mEphA2 at a level equivalent to wild-type TACI_d2	–	–	–	–	–	–
SLSCRKEQGKMYLLKEWDCASCASACGNHPHYCAYFCEN (Amino acid sequence of human EphA2-binding peptide a-EphA2 #2) [α-EphA2 #2]	cross reactivity to mEphA2 at a level equivalent to wild-type TACI_d2	bound	specifically bound	–	–	–	–
SLSCRKEQGKQYLLREWDCDSCASECGSHPHYCAYFCEN (Amino acid sequence of human EphA2-binding peptide a-EphA2 #1) [α-EphA2 #1]	stronger cross reactivity	bound	–	specifically bound	–	–	–
wild-type TACI_d2: wild-type C-terminal cysteine-rich domain of TACI, binds APRIL and BAFF	–	–	–	–	equivalent to the binding activity of the whole extracellular region (TACI_d1d2)	equivalent to the binding activity of the whole extracellular region (TACI_d1d2)	bind to the endogenous ligand hBAFF
